Target: SARS-CoV-2 S receptor-binding domain (RBD) (SARS-CoV-2, UniProt P0DTC2)
Assay: SPR

Row | Binder | Kd [nM]
1 | S2M11 Fab fragment (Fab, V domains shown) VH: EVQLVQSGAEVKKPGASVKVSCKASGYTFTGYYMHWVRQAPGQGLEWMGWINPISSGTSYAQTFQGRVTMTSDTSITTAYMELSRLRSDDTAVYYCARAAPFYDFWSGYSYFDYWGQGTLVTVSS VL: not shown | 66
2 | S2E12 Fab fragment (Fab, V domains shown) VH: not shown VL: DIVLTQTPGTLSLSPGERATLSCRASQSVSSSYLAWYQQKPGQAPRLLIYGASSRATGIPDRFSGSGSGTDFTLTISRLEPEDFAVYYCQQYVGLTGWTFGQGTKVEIK | 1.6
